Reference: paper PMC2898303 (The Journal of Biological Chemistry, 2010)
Changes are numbered by the printed parent chain. Names may count otherwise.

T1: Nab2-N (residues 1–105 of Nab2), untagged (S. cerevisiae, UniProt P32505 1-105)
T1 sequence (looked up): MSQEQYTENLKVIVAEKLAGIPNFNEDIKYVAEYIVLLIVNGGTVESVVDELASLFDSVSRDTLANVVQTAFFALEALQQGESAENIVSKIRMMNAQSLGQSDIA

T2: His6-S-Tag-Gfd1 wild type (S. cerevisiae, UniProt Q04839 1-188)
T2 sequence (looked up): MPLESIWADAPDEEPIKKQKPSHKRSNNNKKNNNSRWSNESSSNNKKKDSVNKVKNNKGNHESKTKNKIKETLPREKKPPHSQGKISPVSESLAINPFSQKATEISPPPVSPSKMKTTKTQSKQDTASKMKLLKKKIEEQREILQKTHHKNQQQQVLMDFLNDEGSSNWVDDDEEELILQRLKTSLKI

B1: GST-Nab2-N-WT (residues 1–97) (domain or fragment, S. cerevisiae, UniProt P32505 1-97, looked up)
chain: MSQEQYTENLKVIVAEKLAGIPNFNEDIKYVAEYIVLLIVNGGTVESVVDELASLFDSVSRDTLANVVQTAFFALEALQQGESAENIVSKIRMMNAQ
B2: GST-Nab2-N-L55W (residues 1–97) (domain or fragment, S. cerevisiae, UniProt P32505 1-97, looked up)
chain: B1 chain with L55W
B3: GST-Nab2-N-F56D (residues 1–97) (domain or fragment, S. cerevisiae, UniProt P32505 1-97, looked up)
chain: B1 chain with F56D

What was measured:
[1] = biological target: T1, Nab2-N (residues 1–105 of Nab2), …; assay: crystal structure
[2] = biological target: T2, His6-S-Tag-Gfd1 wild type; assay: pull-down

Binder	binding result [1]	binding result [2]
SKQDTASKMKLLKKKIEEQREILQKTHHKN (peptide, UniProt Q04839 122-151, looked up) [Gfd1 122–151 (fragment of Gfd1 released from GST-TEV-Gfd1 122–151 by TEV protease)]	binds	–
B1	–	binds
B2	–	binds
B3	–	binds
